The results in this text go back to IntAct's records for PubMed 17070842.

B1: Signal-regulatory protein beta-1 (Homo sapiens), O00241 (parent)
chain: MPVPASWPHLPSPFLLMTLLLGRLTGVAGEDELQVIQPEKSVSVAAGESATLRCAMTSLIPVGPIMWFRGAGAGRELIYNQKEGHFPRVTTVSELTKRNNLDFSISISNITPADAGTYYCVKFRKGSPDDVEFKSGAGTELSVRAKPSAPVVSGPAVRATPEHTVSFTCESHGFSPRDITLKWFKNGNELSDFQTNVDPAGDSVSYSIHSTARVVLTRGDVHSQVICEIAHITLQGDPLRGTANLSEAIRVPPTLEVTQQPMRAENQANVTCQVSNFYPRGLQLTWLENGNVSRTETASTLIENKDGTYNWMSWLLVNTCAHRDDVVLTCQVEHDGQQAVSKSYALEISAHQKEHGSDITHEAALAPTAPLLVALLLGPKLLLVVGVSAIYICWKQKA
B2: Tyrosine-protein phosphatase non-receptor type substrate 1 (Homo sapiens), P78324-4 (parent)
chain: MEPAGPAPGRLGPLLCLLLAASCAWSGVAGEEELQVIQPDKSVLVAAGETATLRCTATSLIPVGPIQWFRGAGPGRELIYNQKEGHFPRVTTVSDLTKRNNMDFSIRIGNITPADAGTYYCVKFRKGSPDVEFKSGAGTELSVRAKPSAPVVSGPAARATPQHTVSFTCESHGFSPRDITLKWFKNGNELSDFQTNVDPVGESVSYSIHSTAKVVLTREDVHSQVICEVAHVTLQGDPLRGTANLSETIRVPPTLEVTQQPVRAENQVNVTCQVRKFYPQRLQLTWLENGNVSRTETASTVTENKDGTYNWMSWLLVNVSAHRDDVKLTCQVEHDGQPAVSKSHDLKVSAHPKEQGSNTAAENTGSNERNIYIVVGVVCTLLVALLMAALYLVRIRQKKAQGSTSSTRLHEPEKNAREITQDTNDITYADLNLPKGKKPAPQAAEPNNHTEYASIQTSPQPASEDTLTYADLDMVHLNRTPKQPAPKPEPSFSEYASVQVPRK

In the first assay the parent is B1. Conditions: with cd47_human CD47, Q08722.
Target sequence in this assay (Q08722 whole entry): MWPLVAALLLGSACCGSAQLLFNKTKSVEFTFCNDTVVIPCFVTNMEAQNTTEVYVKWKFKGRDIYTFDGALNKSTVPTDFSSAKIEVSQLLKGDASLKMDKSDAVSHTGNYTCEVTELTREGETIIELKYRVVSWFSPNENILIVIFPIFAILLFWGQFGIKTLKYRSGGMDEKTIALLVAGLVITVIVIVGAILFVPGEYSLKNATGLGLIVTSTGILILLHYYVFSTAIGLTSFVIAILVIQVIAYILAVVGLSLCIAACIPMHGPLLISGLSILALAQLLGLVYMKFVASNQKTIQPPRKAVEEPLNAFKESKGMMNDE
In the case of M56V;M66Q, the “effect of a mutation on the interaction” value is on record as “causing an interaction”. Same read-out and setting: in the case of M56V;M66Q;A73P it was “causing an interaction”; in that of M56V;M66Q;L101M, “causing an interaction”.

Variants of B2 are the subject of the next assay. The settings on record: with cd47_human CD47, Q08722.
Target sequence in this assay (Q08722 whole entry): as above
On to A57M, for which the “effect of a mutation on the interaction” value is “disrupting interaction strength”.
